From article PMC3958441, “Isl1 and Pou4f2 Form a Complex to Regulate Target Genes in Developing Retinal Ganglion Cells” (PLoS ONE, 2014)

Tests used:
[1] = target: T1, Pou4f2D5;Isl1 (mouse;mouse, UniProt Q63934;P61372 125-411;1-349, |); assay: EMSA; EMSA: 20 mM Tris-HCl pH 7.5, 50 mM NaCl, 10 mM DTT, 1 mM EDTA, 5% glycerol, 200 ng dI/dC, 200 ng each protein in 20 ul, 4 C, 30 min; 8% PAGE, 1x TBE, 4 C; conditions: protein: recombinant;recombinant, tags: His (C-terminal);His (C-terminal, pET-28a), copies: 1;1
T1 sequence 1: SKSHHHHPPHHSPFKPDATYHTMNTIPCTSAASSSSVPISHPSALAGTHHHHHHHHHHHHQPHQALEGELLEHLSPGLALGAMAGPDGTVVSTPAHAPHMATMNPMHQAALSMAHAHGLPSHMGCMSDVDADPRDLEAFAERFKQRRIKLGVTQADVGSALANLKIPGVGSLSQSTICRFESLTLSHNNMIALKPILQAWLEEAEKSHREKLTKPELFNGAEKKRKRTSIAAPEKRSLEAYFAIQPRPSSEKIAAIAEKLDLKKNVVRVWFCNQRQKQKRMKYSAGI
T1 sequence 2: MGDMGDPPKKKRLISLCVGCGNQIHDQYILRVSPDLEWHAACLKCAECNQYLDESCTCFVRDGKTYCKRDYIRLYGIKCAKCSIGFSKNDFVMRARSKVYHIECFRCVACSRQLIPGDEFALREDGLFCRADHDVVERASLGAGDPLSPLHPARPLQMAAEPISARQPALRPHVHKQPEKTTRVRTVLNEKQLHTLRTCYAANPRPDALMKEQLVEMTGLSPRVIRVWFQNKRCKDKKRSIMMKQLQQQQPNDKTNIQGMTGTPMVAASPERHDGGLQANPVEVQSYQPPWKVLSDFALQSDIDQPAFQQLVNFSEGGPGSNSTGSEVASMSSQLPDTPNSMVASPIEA

[2] = target: T2, Pou4f2 (Brn3b);Isl1 (mouse;mouse, UniProt Q63934;P61372 1-411;1-349, |); assay: as above; conditions: protein: recombinant;recombinant; tags: His (C-terminal, pET-28a);His (C-terminal, pET-28a); copies: 1;1; (radiolabel, Klenow fill-in); 5' overhang 1 nt at both ends before fill-in
T2 sequence 1: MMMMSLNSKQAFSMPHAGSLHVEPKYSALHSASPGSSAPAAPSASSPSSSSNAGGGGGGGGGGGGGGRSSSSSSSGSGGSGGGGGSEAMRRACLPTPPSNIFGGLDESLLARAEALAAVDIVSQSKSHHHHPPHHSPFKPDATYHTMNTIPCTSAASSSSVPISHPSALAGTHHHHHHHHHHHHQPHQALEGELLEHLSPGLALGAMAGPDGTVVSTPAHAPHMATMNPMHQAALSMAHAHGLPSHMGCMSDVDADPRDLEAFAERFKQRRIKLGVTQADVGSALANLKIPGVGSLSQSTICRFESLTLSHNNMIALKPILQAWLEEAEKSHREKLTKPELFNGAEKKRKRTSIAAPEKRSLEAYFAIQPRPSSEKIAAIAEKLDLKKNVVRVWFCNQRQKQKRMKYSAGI
T2 sequence 2: T1 sequence 2

[3] = target: T3, Isl1D4;Pou4f2 (Brn3b) (mouse;mouse, UniProt P61372;Q63934 146-349;1-411, |); assay: EMSA; ternary complex; EMSA: 20 mM Tris-HCl pH 7.5, 50 mM NaCl, 10 mM DTT, 1 mM EDTA, 5% glycerol, 200 ng dI/dC, 200 ng each protein in 20 ul, 4 C, 30 min; 8% PAGE, 1x TBE, 4 C; conditions: protein: recombinant;recombinant; tags: His (C-terminal);His (C-terminal, pET-28a); copies: 1;1; (radiolabel, Klenow fill-in); 5' overhang 1 nt at both ends before fill-in
T3 sequence 1: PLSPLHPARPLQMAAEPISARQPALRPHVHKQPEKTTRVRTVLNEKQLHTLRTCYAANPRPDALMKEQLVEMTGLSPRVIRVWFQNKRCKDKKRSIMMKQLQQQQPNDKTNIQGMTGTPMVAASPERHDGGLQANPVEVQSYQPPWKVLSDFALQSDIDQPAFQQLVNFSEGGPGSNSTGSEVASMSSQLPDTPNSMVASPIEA
T3 sequence 2: T2 sequence 1

[4] = target: T2, Pou4f2 (Brn3b);Isl1; assay: as above; conditions: protein: recombinant;recombinant; tags: His (C-terminal, pET-28a);His (C-terminal, pET-28a); copies: 1;1; (radiolabel, Klenow fill-in); 5' overhang 1 nt at both ends before fill-in
[5] = target: T4, Isl1D5;Pou4f2 (Brn3b) (mouse;mouse, UniProt P61372;Q63934 74-349;1-411, |); assay: as above; conditions: protein: recombinant;recombinant; tags: His (C-terminal);His (C-terminal, pET-28a); copies: 1;1; (radiolabel, Klenow fill-in); 5' overhang 1 nt at both ends before fill-in
T4 sequence 1: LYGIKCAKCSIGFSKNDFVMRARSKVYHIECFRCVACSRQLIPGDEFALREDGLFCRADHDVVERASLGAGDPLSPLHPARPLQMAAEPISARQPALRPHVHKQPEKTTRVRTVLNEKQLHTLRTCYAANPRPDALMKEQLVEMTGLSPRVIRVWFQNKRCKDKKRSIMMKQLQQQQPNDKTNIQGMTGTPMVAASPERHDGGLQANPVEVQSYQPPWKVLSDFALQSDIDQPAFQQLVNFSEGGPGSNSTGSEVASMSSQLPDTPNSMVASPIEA
T4 sequence 2: T2 sequence 1

[6] = target: T1, Pou4f2D5;Isl1; assay: as above; conditions: protein: recombinant;recombinant, tags: His (C-terminal);His (C-terminal, pET-28a), copies: 1;1
[7] = target: T5, Pou4f2D4;Isl1 (mouse;mouse, UniProt Q63934;P61372 169-411;1-349, |); assay: as above; conditions: protein: recombinant;recombinant; tags: His (C-terminal);His (C-terminal, pET-28a); copies: 1;1; (radiolabel, Klenow fill-in); 5' overhang 1 nt at both ends before fill-in
T5 sequence 1: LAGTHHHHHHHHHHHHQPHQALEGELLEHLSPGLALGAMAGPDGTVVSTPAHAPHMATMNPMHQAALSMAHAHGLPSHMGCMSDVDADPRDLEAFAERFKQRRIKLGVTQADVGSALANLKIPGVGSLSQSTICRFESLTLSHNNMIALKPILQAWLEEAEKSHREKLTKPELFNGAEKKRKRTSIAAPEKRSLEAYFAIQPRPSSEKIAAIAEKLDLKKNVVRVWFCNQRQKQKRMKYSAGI
T5 sequence 2: T1 sequence 2

[8] = target: T6, Isl1D3;Pou4f2 (Brn3b) (mouse;mouse, UniProt P61372;Q63934 170-349;1-411, |); assay: as above; conditions: protein: recombinant;recombinant; tags: His (C-terminal);His (C-terminal, pET-28a); copies: 1;1; (radiolabel, Klenow fill-in); 5' overhang 1 nt at both ends before fill-in
T6 sequence 1: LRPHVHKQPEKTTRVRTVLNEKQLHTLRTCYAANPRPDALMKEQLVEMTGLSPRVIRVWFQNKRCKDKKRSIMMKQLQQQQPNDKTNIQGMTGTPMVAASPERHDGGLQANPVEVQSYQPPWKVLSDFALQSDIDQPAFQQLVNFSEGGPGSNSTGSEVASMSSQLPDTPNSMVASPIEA
T6 sequence 2: T2 sequence 1

[9] = (radiolabel, Klenow fill-in), 5' overhang 1 nt at both ends before fill-in

B1: EBF3(M) (dsDNA)
DNA 1: GTGCGTTGCTATTTTCGTTGCTCGGGAAAA
DNA 2: TTTTCCCGAGCAACGAAAATAGCAACGCAC
**Q.** Does B1 bind ([1]; (radiolabel, Klenow), blunt)?
**A.** no binding

B2: CBRN3(M) (dsDNA)
DNA 1: GATCTCTCCTGCGCGGTTGACTACCCCCGGAT
DNA 2: GATCCGGGGGTAGTCAACCGCGCAGGAGAGAT
**Q.** Does B2 bind [2]?
**A.** no binding

B3: IRX6(M) (dsDNA)
DNA 1: TACTACTGCTTCGTTGCTTGCAAACATTTC
DNA 2: GGAAATGTTTGCAAGCAACGAAGCAGTAGTA
**Q.** Does B3 bind ([1]; (radiolabel, Klenow fill-in), one end blunt, lower strand 5' overhang 1 nt before fill-in)?
**A.** no binding

B4: SBRN3(M) (dsDNA)
DNA 1: GCACACGACCCAGCGCGTTGACAACCGGGCTG
DNA 2: GCAGCCCGGTTGTCAACGCGCTGGGTCGTGTG
**Q.** Does B4 bind [2]?
**A.** no binding

B5: SBRN3(W) (dsDNA)
DNA 1: GCACACGACCCAATGAATTAATAACCGGGCTG
DNA 2: GCAGCCCGGTTATTAATTCATTGGGTCGTGTG
**Q.** Does B5 bind [3]?
**A.** binds

**Q.** Does B5 bind [4]?
**A.** binds

**Q.** Does B5 bind [5]?
**A.** binds

**Q.** Does B5 bind [6, 9]?
**A.** binds

**Q.** Does B5 bind [7]?
**A.** binds

**Q.** Does B5 bind [8]?
**A.** binds

B6: EBF3(W) (dsDNA)
DNA 1: GTGCGTTAATATTTTAATTAATCGGGAAAA
DNA 2: TTTTCCCGATTAATTAAAATATTAACGCAC
**Q.** Does B6 bind ([6]; (radiolabel, Klenow), blunt)?
**A.** binds

B7: CBRN3(W) (dsDNA)
DNA 1: GATCTCTCCTGCATAATTAATTACCCCCGGAT
DNA 2: GATCCGGGGGTAATTAATTATGCAGGAGAGAT
**Q.** Does B7 bind [3]?
**A.** binds

**Q.** Does B7 bind [4]?
**A.** binds

**Q.** Does B7 bind [5]?
**A.** binds

**Q.** Does B7 bind [6, 9]?
**A.** binds

**Q.** Does B7 bind [7]?
**A.** binds

**Q.** Does B7 bind [8]?
**A.** binds

B8: IRX6(W) (dsDNA)
DNA 1: GTACTACTAATTAATTAATTGCAAACATTTC
DNA 2: GGAAATGTTTGCAATTAATTAATTAGTAGTA
**Q.** Does B8 bind [6, 9]?
**A.** binds
